Data on two molecules can be found in US20260049143A1 (KYMAB, published 2026).

The target in assay [1] is T1, Biotinylated human ICOS protein (human, UniProt Q9Y6W8 21-140, limits assumed, biotinylated).
T1 sequence: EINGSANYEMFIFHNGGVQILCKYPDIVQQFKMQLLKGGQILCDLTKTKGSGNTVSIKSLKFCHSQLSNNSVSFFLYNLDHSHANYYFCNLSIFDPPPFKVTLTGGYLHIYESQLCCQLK
Briefly: avidity SPR (ProteOn), biotinylated hICOS on NLC chip, antibody analyte. The protocol:
(§1) Biotinylated human ICOS protein diluted at 7.5 μg/mL in running buffer (1×HBS-EP+Buffer Technova, cat. No. H8022) was captured on a NLC sensor chip (Bio-Rad, cat No 1765021). The surface was then blocked using biocytin (Sigma Aldrich, cat No B1758) at 1 mg/mL.
(§2) The assay was carried out at 25° C.
(§3) The buffer injection (i.e. 0 nM) was used to double reference the sensorgrams. The analysis was carried out using the equilibrium model inherent to the ProteOn's analysis software for each mAb² construct.

Assay [2] deals with T2, human ICOS-mFc (Chimerigen) (human, UniProt Q9Y6W8 21-140, limits assumed).
T2 construct: Bought fusion; also called hICOS; recombinant human ICOS protein; not shown: mouse Fc
T2 sequence: T1 sequence
Kind of assay: DELFIA ELISA, coated human ICOS-mFc, N=1. The protocol:
(§4) Recombinant ICOS proteins, human ICOS-mFc or mouse ICOS-mFc (Chimerigen) were diluted in 1×PBS and added to Black Hi-bind plates (Griener) at 1 μg/ml, 50 μl/well. Recombinant PD-L1 proteins, human PD-L1-Flag-His or mouse-His were diluted in 1×PBS and added to Black Hi-bind plates (Griener) at 4 μg/ml, 50 μl/well. The plates were left overnight at 4° C. The next day plates were washed 3× with 300 μl/well of 1×PBS+0.1% Tween and blocked with 200 μl/well of 1×PBS+1% BSA blocking buffer for 1 hr at RT on a plate shaker. Plates were washed 3× with 300 μl/well of 1×PBS+0.1% Tween.
(§5) However, human-PD-L1 mAb² antibodies were diluted in 1×PBS+0.1% BSA buffer and diluted 1 in 2 from a starting working concentration of 0.066 μM over an 11 point titration. Titrated antibodies were added to the plates, 50 μl/well and left to incubate for 1 hr at R.T on a plate shaker. Plates were washed 3× with 300 μl/well of 1×PBS+0.1% Tween.
(§6) DELFIA® Eu-labelled Anti-human IgG(Perkin-Elmer) was diluted 1:500 in DELFIA Assay buffer (Perkin-Elmer) and added to the assay plate (50 μl/well), left to incubate for 1 hr at RT on a plate shaker. […] After incubation, assay was read on Envision plate reader (Perkin Elmer), Time-resolved fluorescence (TRF) was measured at 615 nm.

Assay [3] addresses T2, human ICOS-mFc (Chimerigen). Kind of assay: DELFIA ELISA, coated human ICOS-mFc, N=3. Here is the method: as §4, §5, §6
Assay [4] deals with T1, Biotinylated human ICOS protein. Kind of assay: avidity SPR (ProteOn), biotinylated hICOS on NLC chip; calculated on-rate. The protocol: as §1, §2, §3
The target of assay [5] is T2, human ICOS-mFc (Chimerigen). Briefly: HTRF neutralisation of human B7-H2 binding to human ICOS-mFc, average. The protocol: (§7) 5 μl of human ICOS-mFc (Chimerigen) at 20 nM (5 nM final) or 5 μl of mouse ICOS-mFc (Chimerigen) at 4 nM (1 nM final) were added to relevant assay wells. Plate was incubated for 1 hour (hr) at room temperature (RT).
(§8) After incubation, assay was read on Envision plate reader (Perkin Elmer) using a standard HTRF protocol. 620 nm and 665 nm channel values were exported to Microsoft Excel and % Delta-F and % Neutralisation calculations performed. Titration curves and IC50 values [M] were plotted using Graphpad (Prism). IC50 values were calculated by first transforming the data using equation X=Log(X). The transformed data was then fitted using nonlinear regression, using fitting algorithm, log (inhibitor) vs. response-variable slope (four parameters).

Assay [6] has as its target T3, mouse ICOS-mFc (Chimerigen) (mouse, UniProt Q9WVS0 21-141, limits assumed).
T3 construct: Bought fusion; also called mICOS; recombinant mouse ICOS protein; not shown: mouse Fc
T3 sequence: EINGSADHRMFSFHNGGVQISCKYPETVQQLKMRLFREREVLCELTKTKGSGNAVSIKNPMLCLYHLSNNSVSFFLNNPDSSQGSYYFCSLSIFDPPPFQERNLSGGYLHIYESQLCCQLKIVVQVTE
Briefly: DELFIA ELISA, coated mouse ICOS-mFc, N=1. The protocol:
as §4, §5, §6

Assay [7] concerns the target T4, mouse ICOS expressed on CHO cells (mouse, UniProt Q9WVS0 21-141).
T4 construct: the cell-expressed form may differ; also called mICOS; CHO mouse ICOS
T4 sequence: T3 sequence
Kind of assay: flow cytometry, CHO mouse ICOS cells, anti-human IgG AF647, N=2. Here is the method:
CHO-S cells transfected with either human ICOS or mouse ICOS were resuspended in FACS buffer (PBS+1% w/v BSA+0.1% w/v sodium azide) and transferred to a 96-well V-bottom plate (Greiner) at a density of 1×10⁵ cells per well. mAb and mAb² were titrated in FACS buffer, 1 in 3 dilution across 11 points from a starting working concentration of 400 nM. Plates were centrifuged at 300×g for 3 minutes, supernatant discarded and 50 μL mAb or mAb² solution were added to cells and incubated at 4° C. for 1 hour. Cells were washed with 150 μL of PBS and centrifuged at 300×g for 3 minutes, supernatant was discarded and cell pellet resuspended in 150 μL PBS added. This wash step was repeated twice. […] Cells were incubated for 1 hour at 4° C. in the dark. Cells were washed with 150 μL of PBS and centrifuged at 300 g for 3 minutes, supernatant was discarded and cell pellet resuspended in 150 μL PBS added. This wash step was repeated twice. Cells were fixed with 25 μL 4% v/v paraformaldehyde, incubated for 20 minutes at 4° C., cells were pelleted by centrifugation at 300×g and the supernatant discarded. Cells were washed with 150 μL of PBS and centrifuged at 300 g for 3 minutes, supernatant was discarded and cell pellet resuspended in 150 μL PBS added. This wash step was repeated. Pelleted cells were resuspended in 110 μL 1×PBS.

Assay [8] has as its target T3, mouse ICOS-mFc (Chimerigen). Kind of assay: DELFIA ELISA, coated mouse ICOS-mFc, N=2. The protocol:
as §4, §5, §6

Assay [9] has the same target. Briefly: HTRF neutralisation of mouse B7-H2 binding to mouse ICOS-mFc, average. Here is the method:
as §7, §8

B1: STIM003_457 (bispecific antibody, V domains shown, not shown: a dimerising Fc or GST)
VH: EVQLVESGGGVVRPGGSLRLSCVASGVTFDDYGMSWVRQAPGKGLEWVSGINWNGGDTDYSDSVKGRFTISRDNAKNSLYLQMNSLRAEDTALYYCARDFYGSGSYYHVPFDYWGQGILVTVSS
VL: EIVLTQSPGTLSLSPGERATLSCRASQSVSRSYLAWYQQKRGQAPRLLIYGASSRATGIPDRFSGDGSGTDFTLSISRLEPEDFAVYYCHQYDMSPFTFGPGTKVDIK
notes: mAb^2 IgG1; also called ST1M003_457; STIM003_457 mAb^2
For B1, in [1], the off-rate (koff) came to 0.000244 s⁻¹. The EC50 in assay [2] came out at 0.51 nM; in assay [3], 0.401 nM; in [6], 0.327 nM; in assay [7], 11 nM; in assay [8], 0.252 nM. The kon in [4] was 275000 M⁻¹ s⁻¹. The half-maximal inhibitory concentration (IC50) in assay [5] worked out at 0.56 nM.

B2: STIM001_457 (bispecific antibody, V domains shown, not shown: a dimerising Fc or GST)
VH: QVQVVQSGAEVKKPGASVKVSCKASGYTFSTFGITWVRQAPGQGLEWMGWISAYNGDTNYAQNLQGRVIMTTDTSTSTAYMELRSLRSDDTAVYYCARSSGHYYYYGMDVWGQGTTVTVSS
VL: DIVMTQSPLSLPVTPGEPASISCRSSQSLLHSNEYNYLDWYLQKPGQSPQLLIFLGSNRASGVPDRFSGSGSGTDFTLKITRVEAEDVGIYYCMQSLQTPLTFGGGTKVEIK
notes: mAb^2 IgG1; also called STIM001_457 mAb^2
As to B2, the koff in assay [1] is 0.000346 s⁻¹. For the same molecule, the results for the IC50 in [9] and in assay [5] were 5.07 nM and 1.6 nM, respectively. Further, the EC50 in assay [3] is 9.17 nM; in assay [6], 23.6 nM; in assay [7], 3.53 nM. Further, the kon in assay [4] was 37600 M⁻¹ s⁻¹.
